Measurements from patent publication US20100303785A1 (RAMOT AT TEL AVIV UNIVERSITY, published 2010).

Target: T1, Recombinant tau containing three tubulin binding repeats (3R) (Homo sapiens, UniProt P10636-5 1-410, limits assumed)
T1 construct: also called Tau protein 3R; 3R-tau
Experiment: dot blot: peptide on nitrocellulose, incubated with 3R tau, detected with tau5 antibody
Protocol: The membrane was further incubated with 2 μM tau-three microtubule binding domain repeats (1.5 hr, room temperature). The non-specific sites were blocked by soaking in a blocking solution (10 mM Tris, 6 mM NaCl, 0.05% Tween 20) that was supplemented with 5% low-fat milk (1 hr at room temperature). The membrane was incubated with primary antibody (tau5 antibody 1:1000), dissolved in 5% milk in blocking solution (12 hours at 4 C). The membrane was then washed three times with the blocking solution (3×10 min), incubated with secondary antibody conjugated with horseradish peroxidase (HRP) (1 hr at room temperature) and washed again three times with blocking solution (10 min×3). The membrane was incubated with ECL reagent (Western blotting detection system; Amersham Biosciences) for 1 min, covered and exposed Biomax Light Film (Kodak, Rochester, N.Y., USA).

T1 sequence (P10636 other isoform, or with tags, fused parts or gaps limits assumed): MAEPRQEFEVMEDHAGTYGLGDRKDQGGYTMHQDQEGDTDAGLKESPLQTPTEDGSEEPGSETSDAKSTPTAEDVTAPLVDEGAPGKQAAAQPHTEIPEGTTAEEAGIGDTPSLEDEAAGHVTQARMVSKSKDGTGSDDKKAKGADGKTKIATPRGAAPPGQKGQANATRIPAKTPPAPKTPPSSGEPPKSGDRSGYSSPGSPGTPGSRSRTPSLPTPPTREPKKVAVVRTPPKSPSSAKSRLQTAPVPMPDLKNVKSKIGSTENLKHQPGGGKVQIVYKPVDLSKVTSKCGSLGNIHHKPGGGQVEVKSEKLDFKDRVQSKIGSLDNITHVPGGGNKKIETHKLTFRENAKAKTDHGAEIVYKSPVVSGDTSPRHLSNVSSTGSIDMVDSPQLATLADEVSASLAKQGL

binding result: no binding
B1: vasoactive intestinal peptide VIP (peptide, UniProt P01282 125-152, looked up)
peptide: HSDAVFTDNYTRLRKQMAVKKYLNSILN
notes: Negative control peptide in the dot blot; the assay used the peptide itself; also called VIP peptide; control peptide
